Laboratory results: patent US10842793B2, “Inhibitors of the unconventional secretion of fibroblast growth factor 2 (FGF2) by tumor cells and uses thereof” (Universität Heidelberg, priority 2016, dated 2020)
pKd: −log10 of the molar value.

Key:
SH1 kinase domain of Tec = target: T1, SH1 kinase domain of Tec (Homo sapiens, UniProt P42680); experiment: Steady-state fluorescence polarization, FGF2 binding to SH1 kinase domain of Tec; conditions: fluorescein-labeled FGF2 50 nM, 1:1 stoichiometry, ± SEM; read-out: dissociation constant FGF2 / SH1 kinase domain of Tec
T1 construct: yielding a homogenous preparation of the SH1 kinase domain; His (N, cleaved yes); made in house; host or cells: Tec SH1: SF9 insect cells (baculovirus); FGF2: E. coli
T1 sequence (P42680 370-623 limits assumed): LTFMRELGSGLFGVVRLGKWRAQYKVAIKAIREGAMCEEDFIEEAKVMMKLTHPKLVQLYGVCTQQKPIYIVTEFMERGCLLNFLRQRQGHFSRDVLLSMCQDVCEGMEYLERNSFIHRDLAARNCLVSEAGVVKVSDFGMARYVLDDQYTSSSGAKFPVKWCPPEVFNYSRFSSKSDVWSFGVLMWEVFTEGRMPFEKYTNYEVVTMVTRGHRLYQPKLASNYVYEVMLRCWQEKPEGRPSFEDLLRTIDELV
Description: (§1) (A) Fluorescence polarization experiments were conducted using fluorescein-labeled FGF2. FGF2 (at a constant concentration of 50 nM) was incubated with increasing concentrations (0 to 20 μM) of the various Tec constructs indicated. Following incubation for 3 hours at room temperature, changes in polarization (ΔPolarization in mP) were recorded. A non-linear regression analysis was conducted (GST-NΔ173 Tec: black circles, n=8; SH1 kinase domain: green squares, n=5; GST-PH-TH: blue triangles, n=3; GST-SH3-SH2: red triangles, n=3; GST: orange rhombuses, n=5) and standard errors of the mean (SEM) were calculated. As detailed in Experimental Procedures, assuming a binding stoichiometry of 1:1, dissociation constants were calculated to be 1.434 μM±0.55 (SEM) for GST-NΔ173 Tec and 1.032 μM±0.29 (SEM) for the SH1 kinase domain of Tec. FIG. 2A discloses “His6” as SEQ ID NO: 2.
(§2) To determine binding affinity between Tec kinase and FGF2, steady-state fluorescence polarization was used. […] Based on the extinction coefficients of both His-tagged FGF2 and fluroscein-5-maleimide, the degree of labeling was determined to be 30%. […] Absolute protein concentrations were determined based upon the extinction coefficients calculated for each protein and measuring absorption at 280 nm using a NanoDrop 1000 spectrophotometer. […]

GST-NΔ173 Tec = target: T2, GST-NΔ173 Tec (Homo sapiens, UniProt P42680); experiment: Steady-state fluorescence polarization, FGF2 binding to GST-NΔ173 Tec; conditions: fluorescein-labeled FGF2 50 nM, 1:1 stoichiometry, ± SEM; read-out: dissociation constant FGF2 / GST-NΔ173 Tec
T2 construct: made in house; host or cells: Tec: SF9 insect cells (baculovirus); FGF2: E. coli
T2 sequence (P42680 174-631, stated change not applied): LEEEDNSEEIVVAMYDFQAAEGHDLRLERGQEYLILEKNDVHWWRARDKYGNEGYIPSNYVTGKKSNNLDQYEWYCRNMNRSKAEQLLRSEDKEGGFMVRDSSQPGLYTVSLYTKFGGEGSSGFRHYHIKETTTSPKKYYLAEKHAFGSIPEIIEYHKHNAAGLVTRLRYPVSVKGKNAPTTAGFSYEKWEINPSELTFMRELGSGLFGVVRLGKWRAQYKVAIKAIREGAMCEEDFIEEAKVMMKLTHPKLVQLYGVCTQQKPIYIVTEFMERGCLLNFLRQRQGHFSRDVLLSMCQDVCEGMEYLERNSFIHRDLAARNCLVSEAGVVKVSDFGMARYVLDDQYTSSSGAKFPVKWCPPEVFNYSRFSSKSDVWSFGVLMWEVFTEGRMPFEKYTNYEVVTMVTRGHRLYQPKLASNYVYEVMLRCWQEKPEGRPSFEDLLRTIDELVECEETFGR
Description: as §1, §2

pKd (SH1 kinase domain of Tec): 5.99
pKd (GST-NΔ173 Tec): 5.84
Substance: FGF2: recombinant fibroblast growth factor 2, His-tagged and fluorescein-labeled for fluorescence polarization
